Target: T1, recombinant full‐length MBP‐tagged RBM10 (human, UniProt P98175 1-930)
T1 construct: RBM10 (variant 1 is the form found in NB cells), full length; Printed domain limits: RRM1 129-209, ZF1 212-242, RRM2 300-384, ZF2 759-784, G patch 858-904; The construct and its expression host are not described in the main text; They may be in the Supporting Information; source: recombinant, purified
Experiment: co-IP; purified recombinant GST-tagged RORB and MBP-tagged RBM10, full-length or truncated; western blot
Settings: both partners purified

T1 sequence (P98175 whole entry, the tested form may be a part): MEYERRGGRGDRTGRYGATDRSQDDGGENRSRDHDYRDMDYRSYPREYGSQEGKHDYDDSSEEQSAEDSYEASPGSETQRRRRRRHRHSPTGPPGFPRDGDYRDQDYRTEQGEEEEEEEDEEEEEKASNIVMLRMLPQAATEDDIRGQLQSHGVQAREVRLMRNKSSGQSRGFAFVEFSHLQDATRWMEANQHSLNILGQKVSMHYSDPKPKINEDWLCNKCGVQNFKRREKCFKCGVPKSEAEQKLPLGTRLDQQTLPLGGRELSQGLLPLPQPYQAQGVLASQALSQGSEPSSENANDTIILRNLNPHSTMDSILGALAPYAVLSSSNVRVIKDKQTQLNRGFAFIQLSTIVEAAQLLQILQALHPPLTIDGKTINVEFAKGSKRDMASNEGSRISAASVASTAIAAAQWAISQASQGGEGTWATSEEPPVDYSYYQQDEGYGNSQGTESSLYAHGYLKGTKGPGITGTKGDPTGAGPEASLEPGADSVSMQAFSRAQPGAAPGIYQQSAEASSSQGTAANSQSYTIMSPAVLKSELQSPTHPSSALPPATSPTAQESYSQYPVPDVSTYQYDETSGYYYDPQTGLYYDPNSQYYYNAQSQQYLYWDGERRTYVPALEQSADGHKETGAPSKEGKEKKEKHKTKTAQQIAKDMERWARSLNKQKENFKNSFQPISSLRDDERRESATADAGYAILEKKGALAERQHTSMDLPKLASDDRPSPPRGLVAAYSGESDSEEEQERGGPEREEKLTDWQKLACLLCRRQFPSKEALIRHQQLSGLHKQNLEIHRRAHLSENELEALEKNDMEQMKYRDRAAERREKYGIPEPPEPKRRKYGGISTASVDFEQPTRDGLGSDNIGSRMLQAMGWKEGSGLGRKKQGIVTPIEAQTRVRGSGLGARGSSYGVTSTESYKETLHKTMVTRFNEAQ

binding result: binds
B1: recombinant full‐length GST‐tagged RORB (natural protein, UniProt Q92753-1 1-459, looked up)
chain: MRAQIEVIPCKICGDKSSGIHYGVITCEGCKGFFRRSQQNNASYSCPRQRNCLIDRTNRNRCQHCRLQKCLALGMSRDAVKFGRMSKKQRDSLYAEVQKHQQRLQEQRQQQSGEAEALARVYSSSISNGLSNLNNETSGTYANGHVIDLPKSEGYYNVDSGQPSPDQSGLDMTGIKQIKQEPIYDLTSVPNLFTYSSFNNGQLAPGITMTEIDRIAQNIIKSHLETCQYTMEELHQLAWQTHTYEEIKAYQSKSREALWQQCAIQITHAIQYVVEFAKRITGFMELCQNDQILLLKSGCLEVVLVRMCRAFNPLNNTVLFEGKYGGMQMFKALGSDDLVNEAFDFAKNLCSLQLTEEEIALFSSAVLISPDRAWLIEPRKVQKLQEKIYFALQHVIQKNHLDDETLAKLIAKIPTITAVCNLHGEKLQVFKQSHPEIVNTLFPPLYKELFNPDCATGCK
notes: The construct and its expression host are not described in the main text; They may be in the Supporting Information; source: recombinant, purified

— PMC12667445, “Targeting RBM10‐Repressed RORB Activity in Liquid Condensates Inhibits Lysosomal Biogenesis and Neuroblastoma Progression via Affecting NF‐κB Signaling” (Advanced Science, 2025)
